5 molecules from paper PMC8322407 (Communications Biology, 2021) can be followed below.

Broadly, the Ki is a measure of affinity in units of concentration, obtained from inhibition or displacement. A higher Ki goes with weaker binding. A word on the stoichiometry N: it is the number of molecules, sites or subunits per partner or assembly. One may read the Kd as the concentration at which binding is half-saturated.

The target of series [1] is T1, Human Arginase 1 (hArg1), trimeric (human, UniProt P05089).
T1 construct: Human arginase 1, full-length, untagged; trimeric metalloenzyme, each monomer ~35 kDa; buffers contained MnCl2 (the SPR buffer contained 3 mM EDTA); also called trimeric hArg1; human Arg1; source: E. coli BL21 (DE3), purified (heat treatment, HiTrap-SP, Superdex 200)
Nature of the series: cryo-EM structure; hArg1 and full-length mAb mixed at 3:1 molar ratio in 25 mM HEPES pH 7.4, 150 mM NaCl, 1.0 mM MnCl2, incubated 30 min; diluted to ~75 uM monomeric arginase, DDM added to the CMC. The conditions noted are these: both partners purified.

The next series concerns the target T2, mouse Arg1 (Mus musculus (Mouse)., UniProt Q61176).
T2 construct: Mouse arginase 1; construct not described; also called mouse arginase
The series is described as follows: enzyme inhibition kinetics; Thioarginine to thioornithine assay; 1 nM human or mouse arginase incubated 30 min at room temperature with fixed antibody concentrations, variable thioarginine; 50 mM Tris pH 7.5, 50 mM NaCl, 1 mM Mn chloride, 0.05% BSA; competitive inhibition model. The settings on record: both partners purified.

Series [2] deals with the molecule itself. Nature of the series: cryo-EM structure; hArg1 and full-length mAb mixed at 3:1 molar ratio in 25 mM HEPES pH 7.4, 150 mM NaCl, 1.0 mM MnCl2, incubated 30 min; diluted to ~75 uM monomeric arginase, DDM added to the CMC.
Series [3] concerns the target T1, Human Arginase 1 (hArg1), trimeric. Nature of the series: enzyme inhibition kinetics; Thioarginine to thioornithine assay; 1 nM human or mouse arginase incubated 30 min at room temperature with fixed antibody concentrations, variable thioarginine; 50 mM Tris pH 7.5, 50 mM NaCl, 1 mM Mn chloride, 0.05% BSA; competitive inhibition model. The settings on record: both partners purified.

Series [4] deals with T3, Monomeric hArg1 (Arg308 mutated to alanine) (Homo sapiens (Human)., UniProt P05089, Arg308 to an alanine residue).
T3 construct: Human arginase 1 with Arg308 at the monomer interface mutated to alanine, which gives a monomer; also called monomeric human ARG1
The series is described as follows: SPR; Antibody captured on an anti-mouse IgG or anti-human Fc surface (CM5 chip, Biacore T200 or 4000); human ARG1 injected, twofold dilutions from 100 nM; 10 mM HEPES, 150 mM NaCl, 0.05% P20, 3 mM EDTA, pH 7.4; 25 °C; 1:1 binding model. The conditions noted are these: both partners purified. (In general: In SPR one partner is held on a chip, and binding of the other changes the refractive index at the surface.)

For series [5], the target named is T1, Human Arginase 1 (hArg1), trimeric. The description is as above. The conditions noted are these: both partners purified.

T2 sequence (Q61176 whole entry): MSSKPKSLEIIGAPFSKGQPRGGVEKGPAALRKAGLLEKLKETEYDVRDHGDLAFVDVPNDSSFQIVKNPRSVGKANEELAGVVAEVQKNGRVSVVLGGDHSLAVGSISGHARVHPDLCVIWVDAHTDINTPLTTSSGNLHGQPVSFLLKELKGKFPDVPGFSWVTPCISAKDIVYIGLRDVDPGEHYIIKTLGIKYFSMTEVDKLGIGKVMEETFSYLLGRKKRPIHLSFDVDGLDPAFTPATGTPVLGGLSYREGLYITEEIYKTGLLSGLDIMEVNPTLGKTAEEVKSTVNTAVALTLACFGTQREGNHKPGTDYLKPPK

B1: mAb5 (antibody, V domains shown)
VH: EVQLVESGGGVVRPGGSLRLSCAASGFTFDDYGMTWVRQAPGKGLEWVSGINWNGGSTGYADSVKGRFTISRDNAKNSLYLQMNSLRAEDTALYHCARDRRRGSYGSDAFDIWGQGTMVTVSS
VL: DIQMTQSPSSLSASVGDRVTITCRASQGISNYLAWYQQKPGKVPQLLISAASTLQSGVPSRFSGSGSGTDFTLTISSLQPEDVATYYCQKYNSAPRTFGQGTKVEIK
notes: Human heavy chain variable domain from a transgenic (Trianni) mouse immunization; heavy chain of the Fab in PDB 7LEY; Human light chain variable domain from a transgenic (Trianni) mouse immunization; light chain of the Fab in PDB 7LEY; Mouse kappa light chain constant region (mouse IgG1 D265A/kappa backbone); Full-length mAb, human variable regions on a mouse IgG1 D265A/kappa backbone; source: …
With B1, the binding result in series [1] is “binds”. In the series with mouse Arg1, this molecule returned a Ki of 25 ± 1.7 nM.

B2: Human Arginase 1 (hArg1), trimeric (enzyme, UniProt P05089 1-322, looked up)
chain: MSAKSRTIGIIGAPFSKGQPRGGVEEGPTVLRKAGLLEKLKEQECDVKDYGDLPFADIPNDSPFQIVKNPRSVGKASEQLAGKVAEVKKNGRISLVLGGDHSLAIGSISGHARVHPDLGVIWVDAHTDINTPLTTTSGNLHGQPVSFLLKELKGKIPDVPGFSWVTPCISAKDIVYIGLRDVDPGEHYILKTLGIKYFSMTEVDRLGIGKVMEETLSYLLGRKKRPIHLSFDVDGLDPSFTPATGTPVVGGLTYREGLYITEEIYKTGLLSGLDIMEVNPSLGKTPEEVTRTVNTAVAITLACFGLAREGNHKPIDYLNPPK
notes: Human arginase 1, full-length, untagged; trimeric metalloenzyme, each monomer ~35 kDa; buffers contained MnCl2 (the SPR buffer contained 3 mM EDTA); also called trimeric hArg1; human Arg1; source: E. coli BL21 (DE3), purified (heat treatment, HiTrap-SP, Superdex 200)
In the case of B2, the “stoichiometry N” value in series [2] amounted to 3.

B3: mAb1 (antibody, V domains shown)
VH: QVQLVQSGAEVKKPGASVKVSCKASGYTFTNYGISWVRQAPGQGLEWMGWISAYNGNTNYAQKLQGRVTMTTDTSTSTAYMELRSLRSDDTAVYYCAREGAYGYRSPYHNWFDPWGQGTLVTVSS
VL: EIVMTQSPATLSLSPGERATLSCRASQSVSSYLAWYQQKPGQAPRLLIYDASNRATGIPARFSGSGSGTDFTLTISSLEPEDFAVYYCQQHSLLPRTFGGGTKVEIK
notes: Human heavy chain variable domain from yeast display; heavy chain of the Fab in PDB 7LEX and 7LEZ; Mouse IgG2a heavy chain constant region (backbone); Human light chain variable domain from yeast display; light chain of the Fab in PDB 7LEX and 7LEZ; Mouse kappa light chain constant region (mouse IgG2a/kappa backbone); Full-length mAb, human variable regions on a mouse IgG2a/kappa backbone; The Fc …
In series [3], B3 gave a Ki of 3.3 ± 0.3 nM.

B4: mAb2 (antibody, V domains shown)
VH: QVQLVQSGAEVKKPGASVKVSCKASGYTFTNYGISWVRQAPGQGLEWMGWISAYNGNTNYAQKLQGRVTMTTDTSTSTAYMELRSLRSDDTAVYYCAREGAYGYRSPYHNWFDPWGQGTLVTVSS
VL: EIVMTQSPATLSLSPGERATLSCRASQSVSSYLAWYQQKPGQAPRLLIYDASNRATGIPARFSGSGSGTDFTLTISSLEPEDFAVYYCQQHSLLPRTFGGGTKVEIK
notes: Human heavy chain variable domain, identical to that of m3 (mAb1); heavy chain of the Fab in PDB 7LF0; Human light chain variable domain, identical to that of m3 (mAb1); light chain of the Fab in PDB 7LF0; Mouse kappa light chain constant region (mouse IgG1 D265A/kappa backbone); Full-length mAb; differs from mAb1 only in the constant domains; also called mAbs1-3 (member); source: ExpiCHO-S, …
For the molecule B4, the affinity in series [3], expressed as Ki, was 5.3 ± 0.8 nM.

B5: mAb4 (antibody, V domains shown)
VH: EVQLVQSGAEVKKPGASVKVSCKASGYTFTDYYMNWVRQAPGQGLEWIGVISPYNGGTTYNQKFKGKATLTVDKSTSTAYMELSSLRSEDTAVYYCVYDLYYFDYWGQGTLVTVSS
VL: EIVLTQSPATLSLSPGERATLSCRASQRISNDLHWYQQKPGQAPRLLIKYASQSISGIPSRFSGSGSGTDFTLTISSLEPEDFAVYYCQQSNSWPRTFGGGTKLEIK
Take B5: the figures for the Kd in series [4] and in series [5] were 20 nM and 0.56 nM, respectively.
